The text below walks through data of the supplement of paper PMC12042874.

± gives the uncertainty stated by the source.

A short description of the data set: amyloid nucleation score (Sup35N fusion, yeast selection) (log enrichment); library NNK2; higher = more nucleation; inactive = no reads after selection. The essentials:
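After 24 hours of induction with 100 μM copper sulfate, psi-negative yeast expressing peptides of 20 random codons fused to Sup35N were grown for 7 days at 30°C on medium lacking adenine and uracil. Input and output plasmid inserts were sequenced with Illumina, and sequences with under 100 input reads were discarded. Scores for nucleation are the DiMSum log enrichment of output over input reads, centred on the mode score of non-aggregating sequences.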
As for TRVGGWKTSG, the amyloid nucleation score was determined as 0.945 ± 0.32.

As to TSAPSKSLLLGVIIIGAFPD, the amyloid nucleation score entry is “inactive”.

With FWGGDLRACSCGQGIEFAGR, the amyloid nucleation score came to 3.7 ± 0.14.

With MADTPSNFKYYLPKLFKG, the amyloid nucleation score entry was “inactive”.

As for VNLPD, the amyloid nucleation score turned out to be 0.15 ± 0.56.

Turning to RWSGPGCTLSTGMWTFIPQV, the amyloid nucleation score is -0.145 ± 0.76.

VWLDIYSQLEDENVYSSYLD gave an amyloid nucleation score of 2.44 ± 0.086.

Take MFVCYSRYIASEREPAACPI: the amyloid nucleation score result was “inactive”.

NSLMSFWVSVV had an amyloid nucleation score of 0.208 ± 0.34.

AFLNFTDRKSQWKVMVIEFL showed an amyloid nucleation score of 3.3 ± 0.096.

The substance DGFSYDPFSMVSIVVRFVVG came in with an amyloid nucleation score of 0.99 ± 0.32.

NARFFNSFNSFM gave an amyloid nucleation score of 3 ± 0.076.

With FLFSIF, the amyloid nucleation score result was “inactive”.

With LYRFSSLLWLSVSSSCDIV, the amyloid nucleation score entry was “inactive”.

Turning to YLCLTFCNIDNLQVMFKSAY, the amyloid nucleation score turned out to be 8.209 ± 0.034.

Regarding SVMSRNGNYVIVLGQCNCYM, the amyloid nucleation score came to 8.509 ± 0.022.

As to CIYHGANRIYLSDVA, the amyloid nucleation score came out at 0.381 ± 0.6.

For VFNWTNLHYLMAQESVMGY, the amyloid nucleation score turned out to be 0.148 ± 0.35.

As for KLWAPWYNLWLFALTIVCDI, the amyloid nucleation score came out at 0.343 ± 0.64.

In the case of HCLIMGDNDGTLRTLGGR, the amyloid nucleation score was -0.104 ± 0.65.

Take ARKYLRCGSACVKVEYF: the amyloid nucleation score came out at 3.51 ± 0.047.

Turning to SVNILDTWDKVAPTKRPLES, the amyloid nucleation score came out at 0.266 ± 0.49.

On to TITMFHYLRSLSGNSDYGLG, for which the amyloid nucleation score came out at 2.31 ± 0.1.

LQVRSDSMNGFNW displayed an amyloid nucleation score of -0.61 ± 1.1.

GSCVIM showed an amyloid nucleation score of 1.36 ± 0.67.

In turn, LRGVLLSETRCAKEGLPTLS gave an amyloid nucleation score of 0.365 ± 0.36.

In turn, RTLWATNVRLKNLHVFIMVM registered an amyloid nucleation score of 0.147 ± 0.8.

The substance YQDWGSSTLLIVIKSWAGET gave an amyloid nucleation score of -1.02 ± 0.33.

The substance WGHLVWGNTRCLGG gave an amyloid nucleation score of 0.016 ± 1.1.

TSGLAGGDWNWAS had an amyloid nucleation score of 0.314 ± 0.64.

Turning to GVHMSDRVNTMSD, the amyloid nucleation score is -0.129 ± 1.1.

YCLVSIKMCYGYVVGSLVGW displayed an amyloid nucleation score of 2.63 ± 0.068.

Turning to SRNTVLYISLSFLTPYISCC, the amyloid nucleation score was determined as 8.221 ± 0.028.

For the substance AMRWFGKYSRFWNGYIRNWI, the amyloid nucleation score was -0.193 ± 0.76.

On to DRMLCWDLGVIKNVLRTRVL, for which the amyloid nucleation score was -0.354 ± 0.55.

As for LNDSLTIACSTNTANSWRNL, the amyloid nucleation score result is “inactive”.

RRRHLGFGKSVEVE registered an amyloid nucleation score of -0.549 ± 0.34.

Turning to NSAKKLRRPGATCPGQDGYT, the amyloid nucleation score amounted to 0.864 ± 0.41.

As for NFLDMEWTNLLSVMCVDFWS, the amyloid nucleation score was determined as 4.55 ± 0.062.

On to KPHRIENGSTREDEEG, for which the amyloid nucleation score amounted to 0.747 ± 0.31.

As for TWRFYTFLFEVFRRSEILKR, the amyloid nucleation score is -0.97 ± 1.1.

Regarding LKAQRFWTNNLSLEANSHRK, the amyloid nucleation score is -0.573 ± 1.1.

The substance SCKKCMSYVVVVNIVRHICM registered an amyloid nucleation score of 1.86 ± 0.11.

Regarding SFKSDSFTDYYLIDLAITRG, the amyloid nucleation score was -0.046 ± 1.

In turn, ALGSRINYQKGLMQNRTGKG returned an amyloid nucleation score of -0.649 ± 0.76.

Consider VIKKQCCHTYSVLTFRILNC, for which the amyloid nucleation score came out at 0.151 ± 0.63.

In the case of ILPYGVWTRIASIKLK, the amyloid nucleation score was found to be 0.789 ± 0.17.

As for NVVTGVASILWGQDHNKSLV, the amyloid nucleation score is 0.641 ± 0.74.

Substance SSSTFCCLWTFDTRVQFLVN had an amyloid nucleation score of 7.39 ± 0.079.

Substance RCIYWHVTVIFIMDIWVRTY registered an amyloid nucleation score of 0.415 ± 0.17.

In turn, ISGYRWNHVSTFVGIYRVHS returned an amyloid nucleation score of 0.98 ± 0.53.

Turning to YYWASRLVMPCSNRWRLYLQ, the amyloid nucleation score is -0.474 ± 1.

As to MHKAFWPNLALFVMNGYGGV, the amyloid nucleation score stood at 0.304 ± 0.42.

For the substance ILKSRSLVRFHFFSIGASCA, the amyloid nucleation score was 0.427 ± 0.41.

Turning to GTRGVVLISMSWRVDLHWKP, the amyloid nucleation score result is “inactive”.

As to YPMNSVPDI, the amyloid nucleation score was -0.858 ± 0.48.
